Assay [1] addresses ubiquitin (from bovine erythrocytes) (bovine, UniProt P0CG53 1-76). Briefly: NMR titration.
Assay [2] addresses carboxyl terminal domain of rat Cx43 (Cx43CT; residues S255-I382) (rat, UniProt P08050 255-382). In words: NMR titration.

carboxyl terminal domain of rat Cx43 (Cx43CT; residues S255-I382), sequence (P08050 255-382): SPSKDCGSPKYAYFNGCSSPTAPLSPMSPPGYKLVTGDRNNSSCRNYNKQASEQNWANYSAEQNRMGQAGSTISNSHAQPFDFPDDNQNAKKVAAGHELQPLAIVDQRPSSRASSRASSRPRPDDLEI

In the case of MPEVRFQQQLEQLNSMGFINREANLQALIATGGDINAAIERLLGSQLS (domain or fragment, mouse, UniProt Q99NB8 549-596, looked up) [UBA domain of CIP75 (connexin43-interacting protein of approximately 75 kDa), residues M549-S596], the binding result in assay [1] and in assay [2] was “binds” throughout.

Values taken from publication PMC2877510 (Journal of biomolecular NMR, 2010).
